Measurements from the supplement of paper PMC10065799, “High-throughput profiling of sequence recognition by tyrosine kinases and SH2 domains using bacterial peptide display” (eLife, 2023).

Tests used:
[1] = test system: AncSZ; experiment: phosphorylation enrichment, bacterial display (enrichment ratio); higher = better substrate or ligand; peptides without Tyr show the background
[2] = biological target: EPHB1 (UniProt P54762); experiment: as above
[3] = biological target: EPHB2 (UniProt P29323); experiment: as above
[4] = biological target: FGFR1 (UniProt P11362); experiment: as above
[5] = biological target: FGFR3 (UniProt P22607); experiment: as above
[6] = test system: Fer (mouse); experiment: as above
[7] = biological target: Fes (UniProt P07332); experiment: as above
[8] = biological target: Fyn (UniProt P06241); experiment: as above
[9] = biological target: Hck (UniProt P08631); experiment: as above
[10] = biological target: Jak2 (UniProt O60674); experiment: as above
[11] = biological target: MERTK (UniProt Q12866); experiment: as above
[12] = test system: c-Abl (mouse); experiment: as above
[13] = test system: c-Src; experiment: as above
[14] = biological target: Grb2 SH2 (UniProt P62993); experiment: SH2 binding enrichment of the phosphorylated peptide, bacterial display (enrichment ratio); higher = better substrate or ligand; peptides without Tyr show the background
[15] = biological target: SHP2-C SH2; experiment: as above
[16] = biological target: c-Src SH2; experiment: as above
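For SH2 binding enrichment of the phosphorylated peptide, bacterial display in this document: peptide library displayed on the E. coli surface as eCPX fusions, selected cells deep-sequenced, score is each peptide's frequency after selection divided by its frequency in the input.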
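For phosphorylation enrichment, bacterial display in this document: 11-residue human phosphosite peptides and single-mutation variants displayed on the E. coli surface, counted by deep sequencing, each peptide's frequency after selection divided by its frequency in the unselected input library; frequency after pTyr selection over input frequency; kinase dosed for 20-30% of maximal phosphorylation in three min.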

Hck, sequence (P08631 whole entry, looked up): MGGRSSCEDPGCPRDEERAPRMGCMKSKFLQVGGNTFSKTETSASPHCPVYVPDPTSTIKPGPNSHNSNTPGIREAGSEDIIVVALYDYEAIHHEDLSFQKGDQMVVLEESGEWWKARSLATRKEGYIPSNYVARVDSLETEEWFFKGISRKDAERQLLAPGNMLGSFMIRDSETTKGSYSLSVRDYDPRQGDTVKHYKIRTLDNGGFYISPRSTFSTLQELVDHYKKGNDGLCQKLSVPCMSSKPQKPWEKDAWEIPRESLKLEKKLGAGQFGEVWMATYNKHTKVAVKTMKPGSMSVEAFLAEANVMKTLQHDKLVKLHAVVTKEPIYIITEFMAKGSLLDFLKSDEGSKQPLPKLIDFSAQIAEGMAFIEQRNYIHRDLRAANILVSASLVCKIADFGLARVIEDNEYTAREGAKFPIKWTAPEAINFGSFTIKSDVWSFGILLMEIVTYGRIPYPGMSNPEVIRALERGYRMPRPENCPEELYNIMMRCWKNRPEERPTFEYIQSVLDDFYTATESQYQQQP
EPHB1, sequence (P54762 whole entry, looked up): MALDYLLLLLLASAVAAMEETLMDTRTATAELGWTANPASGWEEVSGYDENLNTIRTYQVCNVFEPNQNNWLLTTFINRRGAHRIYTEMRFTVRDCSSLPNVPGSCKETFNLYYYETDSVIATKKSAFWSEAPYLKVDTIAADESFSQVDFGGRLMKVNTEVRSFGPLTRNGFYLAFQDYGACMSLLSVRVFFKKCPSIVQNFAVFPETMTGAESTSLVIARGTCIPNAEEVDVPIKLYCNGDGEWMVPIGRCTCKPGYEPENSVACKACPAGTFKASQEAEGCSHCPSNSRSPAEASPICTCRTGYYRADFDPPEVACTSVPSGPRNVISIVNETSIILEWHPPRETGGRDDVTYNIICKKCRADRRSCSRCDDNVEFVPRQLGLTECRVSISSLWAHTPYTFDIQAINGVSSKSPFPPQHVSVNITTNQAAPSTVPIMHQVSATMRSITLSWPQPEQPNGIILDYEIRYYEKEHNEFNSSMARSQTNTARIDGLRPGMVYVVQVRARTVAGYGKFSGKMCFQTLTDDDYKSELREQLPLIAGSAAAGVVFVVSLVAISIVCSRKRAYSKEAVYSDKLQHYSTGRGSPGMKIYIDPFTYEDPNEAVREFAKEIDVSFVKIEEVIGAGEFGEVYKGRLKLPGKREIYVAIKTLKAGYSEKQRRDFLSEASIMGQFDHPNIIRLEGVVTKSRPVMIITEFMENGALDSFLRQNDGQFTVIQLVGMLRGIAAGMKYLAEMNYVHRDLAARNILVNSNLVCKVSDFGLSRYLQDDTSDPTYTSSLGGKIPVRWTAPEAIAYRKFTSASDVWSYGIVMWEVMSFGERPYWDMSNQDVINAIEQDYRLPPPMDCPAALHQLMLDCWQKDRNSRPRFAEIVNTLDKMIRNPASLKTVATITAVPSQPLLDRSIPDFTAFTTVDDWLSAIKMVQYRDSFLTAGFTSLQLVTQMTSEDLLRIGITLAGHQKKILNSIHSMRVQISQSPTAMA
FGFR3, sequence (P22607 whole entry, looked up): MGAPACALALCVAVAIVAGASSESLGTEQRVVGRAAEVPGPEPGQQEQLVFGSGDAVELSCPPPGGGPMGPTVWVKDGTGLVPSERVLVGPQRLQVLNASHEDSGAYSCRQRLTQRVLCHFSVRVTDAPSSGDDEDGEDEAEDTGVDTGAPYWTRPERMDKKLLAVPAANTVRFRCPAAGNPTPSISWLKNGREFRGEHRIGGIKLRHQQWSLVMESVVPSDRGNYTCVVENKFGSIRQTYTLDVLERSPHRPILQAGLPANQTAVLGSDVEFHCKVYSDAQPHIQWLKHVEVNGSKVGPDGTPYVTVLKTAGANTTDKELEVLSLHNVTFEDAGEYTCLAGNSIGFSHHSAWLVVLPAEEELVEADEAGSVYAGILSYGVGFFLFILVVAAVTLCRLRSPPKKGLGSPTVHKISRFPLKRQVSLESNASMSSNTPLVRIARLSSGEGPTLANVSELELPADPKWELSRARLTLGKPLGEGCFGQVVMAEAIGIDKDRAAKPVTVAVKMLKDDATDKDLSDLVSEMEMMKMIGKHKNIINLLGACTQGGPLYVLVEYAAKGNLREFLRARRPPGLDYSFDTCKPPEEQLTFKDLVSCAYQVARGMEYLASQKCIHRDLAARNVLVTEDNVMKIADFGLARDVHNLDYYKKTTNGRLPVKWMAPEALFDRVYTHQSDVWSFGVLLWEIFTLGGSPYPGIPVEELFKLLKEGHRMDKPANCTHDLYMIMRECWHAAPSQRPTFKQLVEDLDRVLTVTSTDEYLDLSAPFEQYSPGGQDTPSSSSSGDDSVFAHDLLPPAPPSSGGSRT
FGFR1, sequence (P11362 whole entry, looked up): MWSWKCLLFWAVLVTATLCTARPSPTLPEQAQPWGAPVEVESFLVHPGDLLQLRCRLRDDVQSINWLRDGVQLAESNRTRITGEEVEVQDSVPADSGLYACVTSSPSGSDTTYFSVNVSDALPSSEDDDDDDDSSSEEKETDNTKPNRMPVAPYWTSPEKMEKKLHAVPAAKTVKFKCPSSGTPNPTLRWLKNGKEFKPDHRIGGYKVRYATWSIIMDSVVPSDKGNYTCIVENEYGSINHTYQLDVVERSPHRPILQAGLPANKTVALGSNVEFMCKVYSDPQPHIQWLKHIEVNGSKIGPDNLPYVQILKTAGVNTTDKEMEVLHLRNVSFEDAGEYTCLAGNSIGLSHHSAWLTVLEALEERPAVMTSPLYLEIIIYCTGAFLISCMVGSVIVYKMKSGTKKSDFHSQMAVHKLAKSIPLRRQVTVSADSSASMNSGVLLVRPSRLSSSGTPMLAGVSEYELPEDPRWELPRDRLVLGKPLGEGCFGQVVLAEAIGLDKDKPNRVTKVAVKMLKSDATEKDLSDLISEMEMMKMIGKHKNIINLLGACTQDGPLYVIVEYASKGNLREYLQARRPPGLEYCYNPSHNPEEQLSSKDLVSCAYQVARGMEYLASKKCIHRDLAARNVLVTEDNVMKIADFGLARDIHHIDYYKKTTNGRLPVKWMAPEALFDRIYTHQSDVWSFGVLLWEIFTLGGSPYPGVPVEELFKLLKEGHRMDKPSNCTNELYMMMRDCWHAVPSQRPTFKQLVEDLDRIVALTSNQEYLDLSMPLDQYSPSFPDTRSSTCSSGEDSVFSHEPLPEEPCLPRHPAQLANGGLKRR
Fyn, sequence (P06241 whole entry, looked up): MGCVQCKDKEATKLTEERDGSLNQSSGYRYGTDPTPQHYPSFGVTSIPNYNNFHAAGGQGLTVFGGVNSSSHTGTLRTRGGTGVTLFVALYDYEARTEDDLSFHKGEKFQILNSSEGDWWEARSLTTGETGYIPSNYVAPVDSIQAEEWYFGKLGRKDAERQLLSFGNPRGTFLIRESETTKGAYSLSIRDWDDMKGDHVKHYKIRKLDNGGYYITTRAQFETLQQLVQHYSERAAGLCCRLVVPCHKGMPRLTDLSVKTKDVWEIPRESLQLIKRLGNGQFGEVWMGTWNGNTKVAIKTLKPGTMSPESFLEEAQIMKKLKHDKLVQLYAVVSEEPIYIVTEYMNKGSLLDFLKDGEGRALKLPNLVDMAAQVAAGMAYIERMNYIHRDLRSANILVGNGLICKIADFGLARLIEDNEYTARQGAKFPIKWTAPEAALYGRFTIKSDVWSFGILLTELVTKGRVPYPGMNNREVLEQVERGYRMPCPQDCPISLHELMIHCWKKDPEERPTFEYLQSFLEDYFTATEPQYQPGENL
Grb2 SH2, sequence (P62993 whole entry, looked up): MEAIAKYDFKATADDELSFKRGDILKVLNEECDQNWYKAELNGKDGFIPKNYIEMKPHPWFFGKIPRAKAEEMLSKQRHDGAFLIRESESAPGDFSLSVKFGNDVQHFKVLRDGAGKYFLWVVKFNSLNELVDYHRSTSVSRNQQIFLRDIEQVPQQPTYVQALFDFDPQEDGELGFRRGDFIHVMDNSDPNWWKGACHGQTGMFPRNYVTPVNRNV
MERTK, sequence (Q12866 whole entry, looked up): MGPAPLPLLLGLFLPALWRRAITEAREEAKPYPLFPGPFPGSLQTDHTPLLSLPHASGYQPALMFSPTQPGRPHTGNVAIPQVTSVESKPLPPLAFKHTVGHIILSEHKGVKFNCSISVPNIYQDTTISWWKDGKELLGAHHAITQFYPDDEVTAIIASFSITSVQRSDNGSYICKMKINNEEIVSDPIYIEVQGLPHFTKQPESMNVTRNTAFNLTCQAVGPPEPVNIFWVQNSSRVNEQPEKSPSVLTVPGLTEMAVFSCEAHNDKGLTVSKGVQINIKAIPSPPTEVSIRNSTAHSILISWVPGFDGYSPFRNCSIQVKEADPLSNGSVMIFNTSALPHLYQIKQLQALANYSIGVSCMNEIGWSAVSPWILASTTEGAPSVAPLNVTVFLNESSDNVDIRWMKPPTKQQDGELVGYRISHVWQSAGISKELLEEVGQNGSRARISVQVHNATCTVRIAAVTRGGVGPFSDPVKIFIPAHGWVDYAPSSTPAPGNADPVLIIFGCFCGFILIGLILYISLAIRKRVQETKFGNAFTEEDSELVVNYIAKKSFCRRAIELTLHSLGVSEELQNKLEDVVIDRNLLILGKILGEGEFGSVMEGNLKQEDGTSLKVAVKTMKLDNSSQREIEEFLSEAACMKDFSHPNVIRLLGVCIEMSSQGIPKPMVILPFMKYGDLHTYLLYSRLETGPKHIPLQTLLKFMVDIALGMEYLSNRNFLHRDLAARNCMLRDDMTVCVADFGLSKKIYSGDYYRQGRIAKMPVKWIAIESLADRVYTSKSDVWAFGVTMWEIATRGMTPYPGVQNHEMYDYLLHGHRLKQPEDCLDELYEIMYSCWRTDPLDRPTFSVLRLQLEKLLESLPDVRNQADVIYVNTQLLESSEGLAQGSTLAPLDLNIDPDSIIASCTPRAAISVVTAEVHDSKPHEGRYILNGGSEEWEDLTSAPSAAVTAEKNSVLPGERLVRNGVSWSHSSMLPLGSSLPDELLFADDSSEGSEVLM

Row | Sequence | phosphorylation enrichment [1] | phosphorylation enrichment [2] | phosphorylation enrichment [3] | phosphorylation enrichment [4] | phosphorylation enrichment [5] | phosphorylation enrichment [6] | phosphorylation enrichment [7] | phosphorylation enrichment [8] | phosphorylation enrichment [9] | phosphorylation enrichment [10] | phosphorylation enrichment [11] | phosphorylation enrichment [12] | phosphorylation enrichment [13] | SH2 binding enrichment [14] | SH2 binding enrichment [15] | SH2 binding enrichment [16]
1 | HTEGEYSSLEH [IDH3B_Y171_Q166H] | 1.85 | 1.44 | 1.28 | 0.793 | 0.785 | 0.791 | 1.09 | 1.46 | 1.24 | 0.828 | 0.764 | 0.97 | 1.02 | 0.808 | 0.862 | 0.9
2 | IDAICYFRMEN [NPHS2_Y194_YF] | 1.26 | 0.692 | 0.623 | 0.656 | 0.949 | 0.484 | 1.59 | 0.572 | 0.612 | 2.44 | 0.556 | 0.974 | 0.613 | 0.673 | 0.89 | 0.703
3 | IGEGTSGVVYK [CDK2_Y15_Y15S] | 0.574 | 0.374 | 0.319 | 0.299 | 0.426 | 0.339 | 0.616 | 0.28 | 0.306 | 0.494 | 0.274 | 0.5 | 0.29 | 0.639 | 0.562 | 0.361
4 | IGERTYGQVFK [CDK13_Y716_G714R_YF] | 0.62 | 0.468 | 0.557 | 0.368 | 0.482 | 0.456 | 0.905 | 7.52 | 3.7 | 0.495 | 0.4 | 0.474 | 5.22 | 0.857 | 0.754 | 0.519
5 | IGMFSYVMLAS [GGCX_Y301] | 1.21 | 0.649 | 0.611 | 0.598 | 0.851 | 0.562 | 1.56 | 0.444 | 0.548 | 1.57 | 0.477 | 0.997 | 0.512 | 0.841 | 0.604 | 0.424
6 | IGSQRYQLGVR [RB1_Y446_K447Q] | 0.439 | 0.315 | 0.303 | 0.346 | 0.388 | 0.403 | 0.534 | 0.365 | 0.34 | 0.413 | 0.385 | 0.451 | 0.343 | 1.07 | 0.887 | 0.66
7 | IGVGSYSVCKR [RPS6KA3_Y433] | 0.716 | 0.369 | 0.412 | 0.354 | 0.496 | 0.385 | 0.878 | 0.317 | 0.383 | 0.618 | 0.445 | 0.53 | 0.362 | 0.867 | 0.88 | 0.938
8 | IHFAIYFLKYS [ARMC9_Y107_L108F] | 1.21 | 0.789 | 0.718 | 0.666 | 1.01 | 0.586 | 1.41 | 0.723 | 0.787 | 1.73 | 0.529 | 1.09 | 0.585 | 1.18 | 1.22 | 1.11
9 | IHHIDYYKETT [FGFR1_Y653_K656E] | 0.694 | 0.594 | 0.653 | 0.76 | 0.891 | 0.396 | 1.05 | 0.549 | 0.471 | 0.513 | 0.491 | 0.442 | 0.409 | 0.808 | 0.635 | 1.08
10 | IIAVHYVLEES [RYR2_Y4559] | 1 | 0.565 | 0.628 | 0.557 | 0.626 | 0.501 | 2.04 | 0.457 | 0.516 | 0.963 | 0.484 | 0.676 | 0.488 | 1.41 | 1.28 | 1.09
11 | IKAGAYDFPSP [CAMK2A_Y230] | 0.811 | 0.362 | 0.416 | 0.397 | 0.462 | 1.43 | 0.708 | 0.747 | 0.419 | 0.548 | 4.85 | 0.551 | 0.485 | 1.03 | 0.687 | 4.16
12 | ILGRTHFVNHE [NEDD4_Y627_Y627H_YF] | 0.633 | 0.471 | 0.535 | 0.397 | 0.559 | 0.457 | 0.707 | 0.476 | 0.451 | 0.485 | 0.423 | 0.5 | 0.377 | 0.899 | 0.637 | 0.466
13 | ILTLKYPIERG [ACTA1_Y71_H75R] | 0.669 | 0.542 | 0.663 | 0.572 | 0.655 | 0.407 | 0.812 | 0.554 | 0.49 | 0.675 | 0.442 | 0.581 | 0.479 | 0.901 | 1.01 | 0.691
14 | INNIDYFKNTT [FGFR2_Y656_K659N_YF] | 0.471 | 0.374 | 0.327 | 0.377 | 0.474 | 0.317 | 0.687 | 0.393 | 0.401 | 0.463 | 0.408 | 0.421 | 0.301 | 0.81 | 0.692 | 0.36
15 | INNIDYYKNTT [FGFR2_Y656_K659N] | 0.724 | 0.392 | 0.451 | 0.535 | 0.538 | 0.359 | 0.708 | 0.495 | 0.462 | 0.59 | 0.428 | 0.574 | 0.378 | 1.22 | 0.793 | 0.662
16 | INSLKYAFNVS [EIF2B5_Y583_I587V_YF] | 0.77 | 0.443 | 0.43 | 0.44 | 0.584 | 0.452 | 0.85 | 0.478 | 0.51 | 0.771 | 0.447 | 0.593 | 0.464 | 0.705 | 0.352 | 0.379
17 | IPQEEYTATGL | 1.16 | 0.622 | 0.512 | 0.506 | 0.653 | 0.562 | 1.39 | 0.437 | 0.461 | 0.955 | 0.378 | 0.924 | 0.56 | 0.799 | 0.79 | 0.441

Row | Sequence | phosphorylation enrichment [1] | phosphorylation enrichment [2] | phosphorylation enrichment [3] | phosphorylation enrichment [4] | phosphorylation enrichment [5] | phosphorylation enrichment [6] | phosphorylation enrichment [7] | phosphorylation enrichment [8] | phosphorylation enrichment [9] | phosphorylation enrichment [10] | phosphorylation enrichment [11] | phosphorylation enrichment [12] | phosphorylation enrichment [13] | SH2 binding enrichment [14] | SH2 binding enrichment [15] | SH2 binding enrichment [16]
18 | IQKKFYRAILE [CHD7_Y1218_YF] | 0.523 | 0.396 | 0.275 | 0.37 | 0.46 | 0.398 | 0.727 | 0.344 | 0.332 | 0.636 | 0.409 | 0.51 | 0.414 | 0.769 | 0.699 | 0.685
19 | IRGNMYFENSF [EGFR_Y112_YF] | 0.879 | 0.581 | 0.547 | 0.514 | 0.713 | 0.527 | 1.07 | 0.438 | 0.457 | 0.841 | 0.536 | 0.583 | 0.395 | 0.895 | 1.05 | 0.606
20 | IRKVLYANNVM [ACTA1_Y296_D294V] | 0.569 | 0.311 | 0.368 | 0.567 | 0.395 | 0.337 | 0.599 | 0.286 | 0.297 | 0.637 | 0.328 | 0.529 | 0.325 | 1.44 | 0.944 | 0.82
21 | IRTIDYRYTVC [IDS_Y497_W502C] | 0.965 | 0.653 | 0.52 | 0.555 | 0.754 | 0.572 | 1.02 | 0.51 | 0.561 | 0.965 | 0.478 | 0.65 | 0.461 | 0.884 | 0.948 | 2.77
22 | ISDDKYGRIRL [ARCN1_Y310] | 0.484 | 0.357 | 1.04 | 0.407 | 0.357 | 0.312 | 0.501 | 0.434 | 0.454 | 0.419 | 0.325 | 0.433 | 0.56 | 0.806 | 0.639 | 0.434
23 | ISDNAYQFMLT [MYH7_Y162_YF] | 1.22 | 0.662 | 0.526 | 1.83 | 1.51 | 5.75 | 1.19 | 0.654 | 0.684 | 0.957 | 0.883 | 1.09 | 0.807 | 0.762 | 0.841 | 0.735
24 | ISIFHCAKGQP [MPZ_Y82_Y82C] | 1.33 | 0.773 | 0.845 | 0.729 | 1.02 | 0.643 | 1.7 | 0.602 | 0.608 | 1.41 | 0.62 | 0.954 | 0.609 | 1.04 | 0.521 | 0.524
25 | ISRASYYRKGG [ALK_Y1282_Y1278S] | 0.588 | 0.427 | 0.428 | 0.409 | 0.532 | 0.473 | 0.701 | 0.511 | 0.496 | 0.51 | 0.576 | 0.569 | 0.509 | 0.655 | 0.426 | 0.362
26 | ISRLKYPVSQQ [BTK_Y375] | 0.419 | 0.331 | 0.383 | 0.317 | 0.399 | 0.318 | 0.59 | 0.355 | 0.352 | 0.534 | 0.313 | 0.486 | 0.342 | 0.938 | 1.04 | 0.831
27 | ISSLDYISKSK [VAV3_Y294_T298S] | 0.648 | 0.38 | 0.467 | 0.458 | 0.587 | 0.443 | 0.688 | 0.431 | 0.443 | 0.743 | 0.482 | 0.81 | 0.478 | 0.781 | 0.629 | 0.365
28 | ITGNGYYFRVF [MYBPC3_Y1135_I1131T] | 1.04 | 0.561 | 0.589 | 0.41 | 0.72 | 0.488 | 1.08 | 0.384 | 0.385 | 0.936 | 0.294 | 0.701 | 0.301 | 0.665 | 0.799 | 0.475
29 | ITNHIYTWVDP [DFNB31_Y234_V229I] | 2.4 | 2.92 | 1.62 | 3.64 | 2.95 | 9.75 | 1.97 | 4.11 | 2.66 | 1.06 | 8.78 | 0.832 | 4.2 | 1.05 | 0.791 | 0.99
30 | ITNLLYHLVGW [GBA_Y412_V414L] | 1.09 | 2.74 | 1.04 | 6.54 | 5.47 | 3.17 | 0.866 | 2.56 | 4.8 | 1.47 | 8.16 | 0.703 | 2.99 | 1.72 | 1.84 | 1.49
31 | KAFDMYSGDVM [FAM3D_Y122] | 0.832 | 1.18 | 1.15 | 0.593 | 0.569 | 0.423 | 0.732 | 0.846 | 1.23 | 0.653 | 0.876 | 0.508 | 0.935 | 0.829 | 0.559 | 0.462
32 | KDHPDYKYPPR [SOX10_Y171_Q174P] | 0.612 | 0.355 | 0.392 | 0.549 | 0.522 | 0.345 | 0.601 | 0.438 | 0.381 | 0.462 | 0.331 | 0.515 | 0.4 | 1.08 | 0.961 | 0.637
33 | KDHPDYKYQRR [SOX10_Y171_P175R] | 0.483 | 0.33 | 0.3 | 0.402 | 0.369 | 0.303 | 0.574 | 0.283 | 0.367 | 0.519 | 0.349 | 0.516 | 0.319 | 1.03 | 1.17 | 0.829
